Earlier results in publication PMC7593401.

Target: C3b (Homo sapiens) (UniProt P01024)
Test: SPR

C3b (Homo sapiens), sequence (P01024 23-667, chain 1 of 2): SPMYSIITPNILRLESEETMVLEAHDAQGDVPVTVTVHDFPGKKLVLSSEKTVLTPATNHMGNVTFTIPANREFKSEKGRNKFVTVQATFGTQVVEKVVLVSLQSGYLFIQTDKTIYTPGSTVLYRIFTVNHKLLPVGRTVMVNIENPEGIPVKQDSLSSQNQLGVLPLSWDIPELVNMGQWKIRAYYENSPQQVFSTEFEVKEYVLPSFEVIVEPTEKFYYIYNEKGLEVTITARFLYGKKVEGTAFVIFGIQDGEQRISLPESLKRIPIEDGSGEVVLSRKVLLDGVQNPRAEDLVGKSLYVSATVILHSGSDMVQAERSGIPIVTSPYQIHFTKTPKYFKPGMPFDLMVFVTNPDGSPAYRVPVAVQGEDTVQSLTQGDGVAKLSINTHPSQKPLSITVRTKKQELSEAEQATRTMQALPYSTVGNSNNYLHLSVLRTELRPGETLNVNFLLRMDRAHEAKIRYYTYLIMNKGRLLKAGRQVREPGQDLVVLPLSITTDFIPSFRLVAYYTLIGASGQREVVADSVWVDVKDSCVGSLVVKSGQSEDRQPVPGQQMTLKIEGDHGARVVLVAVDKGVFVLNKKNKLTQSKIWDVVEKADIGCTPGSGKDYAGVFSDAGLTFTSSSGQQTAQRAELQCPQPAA
C3b (Homo sapiens), sequence (P01024 749-1663, chain 2 of 2): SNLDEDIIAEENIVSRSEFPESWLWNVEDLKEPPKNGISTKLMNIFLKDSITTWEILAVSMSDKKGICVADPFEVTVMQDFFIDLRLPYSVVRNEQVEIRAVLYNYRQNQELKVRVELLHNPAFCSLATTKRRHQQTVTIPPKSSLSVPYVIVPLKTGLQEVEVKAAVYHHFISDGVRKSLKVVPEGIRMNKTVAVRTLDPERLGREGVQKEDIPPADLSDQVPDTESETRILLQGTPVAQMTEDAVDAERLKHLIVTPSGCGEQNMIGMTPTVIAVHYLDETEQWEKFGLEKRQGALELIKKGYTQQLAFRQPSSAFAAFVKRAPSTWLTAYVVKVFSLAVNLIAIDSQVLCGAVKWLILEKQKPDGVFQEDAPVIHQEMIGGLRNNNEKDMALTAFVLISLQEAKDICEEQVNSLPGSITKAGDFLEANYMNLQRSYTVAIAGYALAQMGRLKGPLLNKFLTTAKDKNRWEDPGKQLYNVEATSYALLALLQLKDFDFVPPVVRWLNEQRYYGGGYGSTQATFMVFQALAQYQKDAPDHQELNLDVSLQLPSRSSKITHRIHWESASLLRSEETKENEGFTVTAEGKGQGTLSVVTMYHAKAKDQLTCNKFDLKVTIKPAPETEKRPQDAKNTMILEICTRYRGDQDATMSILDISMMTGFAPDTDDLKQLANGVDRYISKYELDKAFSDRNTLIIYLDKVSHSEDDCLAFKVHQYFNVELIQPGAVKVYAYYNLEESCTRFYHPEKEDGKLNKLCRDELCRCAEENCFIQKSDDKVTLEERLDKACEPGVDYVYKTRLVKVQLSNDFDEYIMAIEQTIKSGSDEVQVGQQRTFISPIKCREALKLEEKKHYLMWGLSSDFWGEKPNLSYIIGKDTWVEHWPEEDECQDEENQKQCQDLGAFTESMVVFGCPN
FHL-1, sequence (P08603 19-1231): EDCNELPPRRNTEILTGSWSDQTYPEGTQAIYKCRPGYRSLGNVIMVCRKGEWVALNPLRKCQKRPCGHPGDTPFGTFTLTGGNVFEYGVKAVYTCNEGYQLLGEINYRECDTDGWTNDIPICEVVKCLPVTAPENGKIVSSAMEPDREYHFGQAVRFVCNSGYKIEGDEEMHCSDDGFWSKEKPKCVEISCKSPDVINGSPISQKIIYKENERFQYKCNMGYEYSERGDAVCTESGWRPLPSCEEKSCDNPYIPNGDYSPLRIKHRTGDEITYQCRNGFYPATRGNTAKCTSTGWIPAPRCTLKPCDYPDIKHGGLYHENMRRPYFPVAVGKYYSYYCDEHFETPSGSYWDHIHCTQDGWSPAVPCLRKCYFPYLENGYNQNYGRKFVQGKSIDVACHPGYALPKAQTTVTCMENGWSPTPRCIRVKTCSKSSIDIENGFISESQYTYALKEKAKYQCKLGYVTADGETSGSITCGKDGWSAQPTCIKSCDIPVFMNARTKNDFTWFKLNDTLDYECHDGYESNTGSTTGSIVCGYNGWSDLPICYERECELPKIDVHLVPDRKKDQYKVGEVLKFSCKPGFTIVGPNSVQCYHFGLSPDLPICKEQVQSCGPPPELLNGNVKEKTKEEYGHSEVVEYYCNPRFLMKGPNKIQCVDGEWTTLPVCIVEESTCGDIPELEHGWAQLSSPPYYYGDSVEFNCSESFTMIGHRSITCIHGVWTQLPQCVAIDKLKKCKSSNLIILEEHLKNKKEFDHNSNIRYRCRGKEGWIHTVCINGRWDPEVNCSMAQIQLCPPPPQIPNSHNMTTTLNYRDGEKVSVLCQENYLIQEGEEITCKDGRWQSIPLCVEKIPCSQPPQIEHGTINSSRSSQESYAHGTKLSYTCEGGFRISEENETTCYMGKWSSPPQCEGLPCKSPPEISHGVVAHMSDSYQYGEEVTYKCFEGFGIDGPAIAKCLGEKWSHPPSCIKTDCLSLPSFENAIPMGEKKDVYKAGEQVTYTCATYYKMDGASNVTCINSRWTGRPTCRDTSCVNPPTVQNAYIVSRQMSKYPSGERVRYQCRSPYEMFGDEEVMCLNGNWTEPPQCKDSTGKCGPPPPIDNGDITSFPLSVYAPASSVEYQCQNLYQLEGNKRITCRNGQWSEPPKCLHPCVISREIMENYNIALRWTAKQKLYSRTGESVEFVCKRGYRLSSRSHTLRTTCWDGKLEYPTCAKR
Factor H, sequence (P08603 19-1231): as above

Kd [µM] | Substance
0.6 | Factor H (from UniProt P08603)
1 | FHL-1 (from UniProt P08603)
